Reference: paper PMC2175169 (The Journal of Cell Biology, 2000)

Target: authentic E1A 243R protein, purified from bacteria (adenovirus, UniProt P03255-2 1-243)
Experiment: pull-down

B1: GST-p21 Δ1-80 (domain or fragment)
chain: TGPRRGRDELGGGRRPGTSPALLQGTAEEDHVDLSLSCTLVPRSGEQAEGSPGGPGDSQGRKRRQTSMTDFYHSKRRLIFSKRKP
- binding result: binds
